# Test results taken from PMC4424056.
# Experiments:
# [1] = molecular target: integrin αIIb cytoplasmic tail (αIIb CT, W988-E1008) (human) (UniProt P08514); experiment: SPR
# [2] = molecular target: integrin αIIb cytoplasmic tail (αIIb CT, W988-E1008) (human) (UniProt P08514)
# integrin αIIb cytoplasmic tail (αIIb CT, W988-E1008) (human), sequence (P08514 1019-1039): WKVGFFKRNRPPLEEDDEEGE
substance,measurement,setting,value
filamin A immunoglobulin repeat 21 (FLNa-Ig21) (from UniProt P21333 2236-2330) (domain or fragment),Kd,[1],229 µM
same,inhibition by FLNa-Ig21 of the PAC1 binding of WT αIIbβ3 in CHO cells,[2],40%
